In US20100261252A1:

Target: human IgA1 (human) (UniProt P01876)
Assay: cell-based or functional assay

Sequence of UniProt P01876 (P01876 other isoform, or with tags, fused parts or gaps): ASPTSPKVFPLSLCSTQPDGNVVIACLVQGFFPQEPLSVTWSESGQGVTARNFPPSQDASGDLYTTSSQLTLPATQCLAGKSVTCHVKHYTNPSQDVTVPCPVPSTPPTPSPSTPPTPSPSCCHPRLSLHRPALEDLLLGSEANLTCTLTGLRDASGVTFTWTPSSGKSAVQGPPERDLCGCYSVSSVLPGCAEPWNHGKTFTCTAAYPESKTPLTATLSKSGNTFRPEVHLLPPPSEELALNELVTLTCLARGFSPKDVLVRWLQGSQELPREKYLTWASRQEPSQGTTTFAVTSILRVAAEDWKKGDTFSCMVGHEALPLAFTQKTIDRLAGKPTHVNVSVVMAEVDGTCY

Substance: C-terminal His-tagged H. influenzae IgA1 protease (proteolytic protease domain, lacking the α protein and β-core domains) (from UniProt P44969 26-1014) (enzyme)
- human IgA1 cleavage activity of purified refolded IgA1 protease (Experion automated electrophoresis) (ng IgA1/uL/min/ng protease): 50
